# Results from patent US12723255B2, “Herbicide tolerance genes and methods of use thereof” (priority 2014, dated 2026).
# B1: MON-HT55: engineered oxygenase protein, amino acid sequence SEQ ID NO:11 (protein)
# chain: MHAALSPLSQRFERIAVQPLTGVLGAEITGVDLREPLDDSTWNEILDAFHTYQVIYFPGQAITNEQHIAFSRRFGPVDPVPLLKSIEGYPEVQMIRREANESGRVIGENWHTDSTFLDAPPAAVVMYAKEIPPYGGDTLFTSMYTAWETLSPTMQATIEGLNVVHSATRVFGSLYQAQNRRFSNTSVKVMDVDAGDRETVHPLVVTHPETGRKGLYVNQVYCQRIEGMSEKESEPLLSFLFAHATKPEFTCRVRWQEGDVLVWDNLCTQHYAVPDYAGKFRYLTRTTVGGVRPAR
# What was measured:
# F1 hybrid maize plants [1] = assay: 2,4-D tolerance at elevated growth temperatures; assay type: in vivo; details: 4× 2,4-D amine; day/night 38° C./30° C.; ten days after treatment
# Description: To test for 2,4-D tolerance at elevated growth temperatures, F1 hybrid plants were produced by crossing an R1 plant containing MON-HTI, MON-HT2, MON-HT3, MON-HT4, MON-HT7, or MON-HT55 with an inbred plant containing maize event MON89034. The F1 hybrid plants were grown in a greenhouse for one week at a minimum temperature of 20° C. and a maximum temperature of 28° C. with 50 to 80% humidity. After 1 week, the plants were moved to acclimate for three days at one of two different day and night temperature regimens: (1) both day and night temperatures set at 20° C. or (2) day temperature at 38° C. and night temperature at 30° C. At the end of the acclimation period, the plants were generally at V4 growth stage and were sprayed with 4× 2,4-D amine. Ten days after treatment the plants were scored for injury using an injury scale of 0 to 100 with “0” being no injury and “100” being a dead plant. When plants were acclimated at day/night temperatures of 20° C./20° C. prior to application of 4× 2,4-D amine, F1 plants containing MON-HT1, MON-HT2, MON-HT3, MON-HT4, MON-HT7, or MON-HT55 had injury rating averages of <10%, and the control plants had injury rating averages of <20% (FIG. 4D). […]
# F1 hybrid maize plants [2] = assay: plant-based growth chamber assay for temperature-sensitive quizalofop-P tolerance; assay type: in vivo
# Excerpt: The finding that hybrid plants expressing the engineered proteins MON-HT55 or MON-HT51 were sensitive to quizalofop-P application when grown in field conditions of high temperature was confirmed using a plant-based assay. The plant-based assay was designed to test tolerance to quizalofop-P of F1 hybrids in the growth chamber prior to field testing. The assay was developed using F1 hybrids of plants containing maize events NK603 (U.S. Pat. No. 8,273,959)×MON89034 (U.S. Pat. No. 8,581,047) and F1 hybrids of plants containing MON-HT55×MON89034. F1 hybrid seed was germinated in a growth chamber for 1 week and then moved to one of three different growth chambers to acclimate for two days at day/night temperatures of 20° C./20° C., 28° C./20° C., and 38° C./30° C. prior to application of 2× (0.16 lb ai/acre) quizalofop-P. As expected, the plants not containing MON-HT55 at all temperature regimens were severely injured by 2× quizalofop-P application (FIG. 1B). […] (FIG. 1C). This confirmed that the plant-based assay could be used to screen proteins in plants in the growth chamber for temperature-sensitive activity.
molecule,measurement,setting,value
B1,injury rating averages,F1 hybrid maize plants [1],50%
same,tolerance to 2× quizalofop-P application,F1 hybrid maize plants [2]; acclimated at day/night 20° C./20° C. or 28° C./20° C.,good tolerance
same,tolerance to 2× quizalofop-P application,F1 hybrid maize plants [2]; acclimated at day/night 38° C./30° C.,significant sensitivity
